Results published in IntAct's records for PubMed 39009827.

B1: BRCA1-A complex subunit Abraxas 1 (Homo sapiens), Q6UWZ7 (parent)
chain: MEGESTSAVLSGFVLGALAFQHLNTDSDTEGFLLGEVKGEAKNSITDSQMDDVEVVYTIDIQKYIPCYQLFSFYNSSGEVNEQALKKILSNVKKNVVGWYKFRRHSDQIMTFRERLLHKNLQEHFSNQDLVFLLLTPSIITESCSTHRLEHSLYKPQKGLFHRVPLVVANLGMSEQLGYKTVSGSCMSTGFSRAVQTHSSKFFEEDGSLKEVHKINEMYASLQEELKSICKKVEDSEQAVDKLVKDVNRLKREIEKRRGAQIQAAREKNIQKDPQENIFLCQALRTFFPNSEFLHSCVMSLKNRHVSKSSCNYNHHLDVVDNLTLMVEHTDIPEASPASTPQIIKHKALDLDDRWQFKRSRLLDTQDKRSKADTGSSNQDKASKMSSPETDEEIEKMKGFGEYSRSPTF
B2: BCL11 transcription factor A (Homo sapiens), Q9H165 (parent)
chain: MSRRKQGKPQHLSKREFSPEPLEAILTDDEPDHGPLGAPEGDHDLLTCGQCQMNFPLGDILIFIEHKRKQCNGSLCLEKAVDKPPSPSPIEMKKASNPVEVGIQVTPEDDDCLSTSSRGICPKQEHIADKLLHWRGLSSPRSAHGALIPTPGMSAEYAPQGICKDEPSSYTCTTCKQPFTSAWFLLQHAQNTHGLRIYLESEHGSPLTPRVGIPSGLGAECPSQPPLHGIHIADNNPFNLLRIPGSVSREASGLAEGRFPPTPPLFSPPPRHHLDPHRIERLGAEEMALATHHPSAFDRVLRLNPMAMEPPAMDFSRRLRELAGNTSSPPLSPGRPSPMQRLLQPFQPGSKPPFLATPPLPPLQSAPPPSQPPVKSKSCEFCGKTFKFQSNLVVHRRSHTGEKPYKCNLCDHACTQASKLKRHMKTHMHKSSPMTVKSDDGLSTASSPEPGTSDLVGSASSALKSVVAKFKSENDPNLIPENGDEEEEEDDEEEEEEEEEEEEELTESERVDYGFGLSLEAARHHENSSRGAVVGVGDESRALPDVMQGMVLSSMQHFSEAFHQVLGEKHKRGHLAEAEGHRDTCDEDSVAGESDRIDDGTVNGRGCSPGESASGGLSKKLLLGSPSSLSPFSKRIKLEKEFDLPPAAMPNTENVYSQWLAGYAASRQLKDPFLSFGDSRQSPFASSSEHSSENGSLRFSTPPGELDGGISGRSGTGSGGSTPHISGPGPGRPSSKEGRRSDTCEYCGKVFKNCSNLTVHRRSHTGERPYKCELCNYACAQSSKLTRHMKTHGQVGKDVYKCEICKMPFSVYSTLEKHMKKWHSDRVLNNDIKTE
B3: LIM domain-binding protein 3 (Homo sapiens), O75112 (parent)
chain: MSYSVTLTGPGPWGFRLQGGKDFNMPLTISRITPGSKAAQSQLSQGDLVVAIDGVNTDTMTHLEAQNKIKSASYNLSLTLQKSKRPIPISTTAPPVQTPLPVIPHQKDPALDTNGSLVAPSPSPEARASPGTPGTPELRPTFSPAFSRPSAFSSLAEASDPGPPRASLRAKTSPEGARDLLGPKALPGSSQPRQYNNPIGLYSAETLREMAQMYQMSLRGKASGVGLPGGSLPIKDLAVDSASPVYQAVIKSQNKPEDEADEWARRSSNLQSRSFRILAQMTGTEFMQDPDEEALRRSSTPIEHAPVCTSQATTPLLPASAQPPAAASPSAASPPLATAAAHTAIASASTTAPASSPADSPRPQASSYSPAVAASSAPATHTSYSEGPAAPAPKPRVVTTASIRPSVYQPVPASTYSPSPGANYSPTPYTPSPAPAYTPSPAPAYTPSPVPTYTPSPAPAYTPSPAPNYNPAPSVAYSGGPAEPASRPPWVTDDSFSQKFAPGKSTTSISKQTLPRGGPAYTPAGPQVPPLARGTVQRAERFPASSRTPLCGHCNNVIRGPFLVAMGRSWHPEEFTCAYCKTSLADVCFVEEQNNVYCERCYEQFFAPLCAKCNTKIMGEVMHALRQTWHTTCFVCAACKKPFGNSLFHMEDGEPYCEKDYINLFSTKCHGCDFPVEAGDKFIEALGHTWHDTCFICAVCHVNLEGQPFYSKKDRPLCKKHAHTINL
B4: Epithelial sodium channel subunit beta (Homo sapiens), P51168 (parent)
chain: MHVKKYLLKGLHRLQKGPGYTYKELLVWYCDNTNTHGPKRIICEGPKKKAMWFLLTLLFAALVCWQWGIFIRTYLSWEVSVSLSVGFKTMDFPAVTICNASPFKYSKIKHLLKDLDELMEAVLERILAPELSHANATRNLNFSIWNHTPLVLIDERNPHHPMVLDLFGDNHNGLTSSSASEKICNAHGCKMAMRLCSLNRTQCTFRNFTSATQALTEWYILQATNIFAQVPQQELVEMSYPGEQMILACLFGAEPCNYRNFTSIFYPHYGNCYIFNWGMTEKALPSANPGTEFGLKLILDIGQEDYVPFLASTAGVRLMLHEQRSYPFIRDEGIYAMSGTETSIGVLVDKLQRMGEPYSPCTVNGSEVPVQNFYSDYNTTYSIQACLRSCFQDHMIRNCNCGHYLYPLPRGEKYCNNRDFPDWAHCYSDLQMSVAQRETCIGMCKESCNDTQYKMTISMADWPSEASEDWIFHVLSQERDQSTNITLSRKGIVKLNIYFQEFNYRTIEESAANNIVWLLSNLGGQFGFWMGGSVLCLIEFGEIIIDFVWITIIKLVALAKSLRQRRAQASYAGPPPTVAELVEAHTNFGFQPDTAPRSPNTGPYPSEQALPIPGTPPPNYDSLRLQPLDVIESDSEGDAI

Variants of: B1
Conditions: with ima3_human KPNA4, O00629
Chain of ima3_human KPNA4, O00629 (O00629 whole entry): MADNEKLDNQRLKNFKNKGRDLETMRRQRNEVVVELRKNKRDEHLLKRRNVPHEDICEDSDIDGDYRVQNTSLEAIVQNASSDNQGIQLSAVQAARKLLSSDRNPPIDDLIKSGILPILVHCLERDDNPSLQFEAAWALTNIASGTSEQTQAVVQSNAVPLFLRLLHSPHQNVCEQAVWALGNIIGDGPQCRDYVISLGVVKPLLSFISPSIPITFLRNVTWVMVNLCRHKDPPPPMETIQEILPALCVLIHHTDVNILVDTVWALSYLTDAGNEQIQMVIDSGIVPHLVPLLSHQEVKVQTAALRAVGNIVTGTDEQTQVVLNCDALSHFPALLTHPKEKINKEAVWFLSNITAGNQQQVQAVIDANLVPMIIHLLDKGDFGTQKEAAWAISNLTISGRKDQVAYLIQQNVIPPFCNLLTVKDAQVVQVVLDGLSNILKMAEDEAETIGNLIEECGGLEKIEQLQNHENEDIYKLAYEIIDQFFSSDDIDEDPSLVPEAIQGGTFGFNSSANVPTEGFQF

effect of a mutation on the interaction	Variant
decreasing interaction strength	MEGESTSAVLSGFVLGALAFQHLNTDSDTEGFLLGEVKGEAKNSITDSQMDDVEVVYTIDIQKYIPCYQLFSFYNSSGEVNEQALKKILSNVKKNVVGWYKFRRHSDQIMTFRERLLHKNLQEHFSNQDLVFLLLTPSIITESCSTHRLEHSLYKPQKGLFHRVPLVVANLGMSEQLGYKTVSGSCMSTGFSRAVQTHSSKFFEEDGSLKEVHKINEMYASLQEELKSICKKVEDSEQAVDKLVKDVNRLKREIEKRRGAQIQAAREKNIQKDPQENIFLCQALRTFFPNSEFLHSCVMSLKNRHVSKSSCNYNHHLDVVDNLTLMVEHTDIPEASPASTPQIIKHKALDLDDRWQFKRSQLLDTQDKRSKADTGSSNQDKASKMSSPETDEEIEKMKGFGEYSRSPTF [R361Q]

Variants of: B2
Conditions: with clh1_human CLTC

effect of a mutation on the interaction	Variant
increasing interaction strength	C48F

Variants of: B3
Conditions: with src_human SRC

effect of a mutation on the interaction	Variant
decreasing interaction strength	P99S

Variants of: B4
Conditions: with nedd4_human NEDD4, P46934
Chain of nedd4_human NEDD4, P46934 (P46934 whole entry): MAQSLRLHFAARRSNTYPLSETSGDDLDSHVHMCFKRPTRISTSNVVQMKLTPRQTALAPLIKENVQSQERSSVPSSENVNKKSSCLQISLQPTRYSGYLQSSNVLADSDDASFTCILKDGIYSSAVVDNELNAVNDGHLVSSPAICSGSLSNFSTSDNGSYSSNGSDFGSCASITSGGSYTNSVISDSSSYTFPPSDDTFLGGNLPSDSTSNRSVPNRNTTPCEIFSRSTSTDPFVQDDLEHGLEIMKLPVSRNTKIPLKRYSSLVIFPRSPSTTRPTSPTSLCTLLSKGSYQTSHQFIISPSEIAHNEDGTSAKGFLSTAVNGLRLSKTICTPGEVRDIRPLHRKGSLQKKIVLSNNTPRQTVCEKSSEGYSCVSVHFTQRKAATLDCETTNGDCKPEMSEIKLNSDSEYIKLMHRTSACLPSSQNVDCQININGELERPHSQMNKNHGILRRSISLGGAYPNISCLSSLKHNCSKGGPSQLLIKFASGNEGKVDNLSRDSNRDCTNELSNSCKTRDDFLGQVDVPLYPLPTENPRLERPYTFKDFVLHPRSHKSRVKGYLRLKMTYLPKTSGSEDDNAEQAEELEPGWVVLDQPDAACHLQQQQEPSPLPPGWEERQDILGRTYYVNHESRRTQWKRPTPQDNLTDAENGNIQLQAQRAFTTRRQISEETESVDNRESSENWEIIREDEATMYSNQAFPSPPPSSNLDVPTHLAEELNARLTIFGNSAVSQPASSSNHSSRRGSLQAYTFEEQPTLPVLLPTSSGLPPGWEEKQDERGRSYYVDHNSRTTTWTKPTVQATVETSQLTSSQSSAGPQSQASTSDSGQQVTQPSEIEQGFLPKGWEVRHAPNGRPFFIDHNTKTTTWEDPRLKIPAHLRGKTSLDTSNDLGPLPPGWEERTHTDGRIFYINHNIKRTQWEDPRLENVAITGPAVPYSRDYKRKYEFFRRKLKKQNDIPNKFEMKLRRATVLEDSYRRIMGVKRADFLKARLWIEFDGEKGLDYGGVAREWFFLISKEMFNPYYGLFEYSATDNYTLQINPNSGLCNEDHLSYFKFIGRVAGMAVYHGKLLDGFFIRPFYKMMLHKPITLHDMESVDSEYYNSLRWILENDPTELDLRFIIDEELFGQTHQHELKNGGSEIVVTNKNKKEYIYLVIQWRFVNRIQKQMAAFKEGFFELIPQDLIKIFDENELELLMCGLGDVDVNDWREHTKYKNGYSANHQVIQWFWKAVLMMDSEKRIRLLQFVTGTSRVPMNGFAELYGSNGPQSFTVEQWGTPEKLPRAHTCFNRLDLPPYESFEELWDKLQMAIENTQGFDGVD

effect of a mutation on the interaction	Variant
decreasing interaction strength	P616R

Variants of: B4
Conditions: with nedd4_human NEDD4, P46934
Remark: another data set of the same source

effect of a mutation on the interaction	Variant
decreasing interaction strength	P617S

Variants of: B4
Conditions: with wwtr1_human WWTR1, Q9GZV5
Chain of wwtr1_human WWTR1, Q9GZV5 (Q9GZV5 whole entry): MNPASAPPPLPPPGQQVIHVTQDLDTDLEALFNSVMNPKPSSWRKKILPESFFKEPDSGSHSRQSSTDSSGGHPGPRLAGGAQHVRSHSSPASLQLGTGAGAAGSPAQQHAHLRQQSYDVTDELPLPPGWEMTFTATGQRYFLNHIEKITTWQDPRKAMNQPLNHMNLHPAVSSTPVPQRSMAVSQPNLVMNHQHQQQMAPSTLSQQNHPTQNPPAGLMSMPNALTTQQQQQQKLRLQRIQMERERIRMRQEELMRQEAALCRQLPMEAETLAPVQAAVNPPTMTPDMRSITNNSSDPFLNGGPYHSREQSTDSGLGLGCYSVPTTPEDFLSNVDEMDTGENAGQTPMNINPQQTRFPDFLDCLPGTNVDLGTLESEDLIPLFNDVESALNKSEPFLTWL

effect of a mutation on the interaction	Variant
decreasing interaction strength	P617S
